From patent US20200040103A1 (Genentech, published 2020)
Substitutions are numbered along the chain they refer to.

T1: Recombinant human KLK5 residues I67-S293 (SEQ ID NO:328) (human, UniProt Q9Y337 67-293, lysine residues methylated in the 10C5 and 9H5 complexes that gave crystals)
T1 construct: Expressed in Sf9 cells as ubiquitin fusion; ubiquitin removed with Enterokinase; also called Human KLK5 Crystal Structure Experiments
T1 sequence: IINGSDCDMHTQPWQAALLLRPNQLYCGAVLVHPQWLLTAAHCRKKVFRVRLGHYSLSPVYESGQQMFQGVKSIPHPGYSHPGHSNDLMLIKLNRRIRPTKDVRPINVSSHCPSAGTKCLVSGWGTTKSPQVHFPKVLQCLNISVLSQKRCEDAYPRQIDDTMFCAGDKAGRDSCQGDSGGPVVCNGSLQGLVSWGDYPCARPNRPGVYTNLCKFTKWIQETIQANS

B1: 8E11 (antibody, V domains shown)
VH: QEQLEESGGDLVKPEGSLTLTCTASGFSFSSSYWICWVRQAPGKGLEWIACVYGLDVNIYYASWTKGRFTISKTSSTTVTLQMTSLTAADTATYFCARGGGSADFGFDLWGPGTLVTVSS
VL: DVVMTQTASPVSAAVGGTVTIKCQASENIYSLLAWYQQKPGQPPKVLIYDASDLASGVPSRFKGSGSGTQFTLTISDLECADAATYYCQATAYGSSGNAFGGGTEVVVK
B2: 8G10 (antibody, V domains shown)
VH: QSLEESGGDLVKPEGSLTLTCTASGFSFSTSYWICWVRQAPGKGLEWIACVYGLDVNIYYASWTEGRFTISKTSSTTVTLQVTSLTAADTATYFCARGGGSADFGFDLWGPGTLVTVSS
VL: B1 VL with A8P, S9A, P10S, A13E, A14P
B3: 14C8 (antibody, V domains shown)
VH: EVQLVESGGGLVQPGRSLKLSCTASGFTFSDYNMAWVRQAPKGGLEWVTTISYDAGRTYYRDSVKGRFTISRDNAKRTLSLQMDSLRSEDTATYYCATGIFNYGTDYFDYWGQGVMVTVSS
VL: DIQMTQSPASLSASLGETVTIQCRASEDIYSGLAWYQQKPGKSPQLLIYGATTLHDGVPSRFSGSGSGTQYSLKISSMHSEDEGIYFCHQGLSFPYTFGAGTKLELK
B4: 14E12 (antibody, V domains shown)
VH: EVQLVESGGGLVRPGRSLRLSCAASGFTFSDYYMAWVRQAPTKGLEWVASISYDGDTTYYRDSVKGRFTISRDNARSSLYLQMDSLRSDDTANYFCTTDGTIPAGSWFAYWGQGTLVTVSS
VL: DIQMTQSPASLSASLGETVTIECLASKNIYRNLAWYQQKPGKSPQFLISDASRLQDGVPSRFTGSDSGSQYSLKINSLQSEDVATYFCQQYHDYPYTFGAGTKLELK
B5: 3-3F5 Fab (Fab, V domains shown)
VH: EVQLLESGGGLVQPGGSLRLSCAVSGFSLNDYGVSWVRQAPGKGLEWVGAIGSSGVAWYANFAKGRFTISRDNSKNTLYLQMNSLRAEDTAVYYCARDRDYGYRADDATSGMDLWGRGTLVTVSS
VL: AIRMTQSPSSFSASTGDRVTITCQASESIGNALAWYQQKPGKAPKLLIYDASDLASGVPSRFSGSGSGTDFTLTISSLQPEDFATYYCQQGDSHNNVDNIFGGGTKVEIKR
notes: Fab used for crystallization with human KLK5; also called 3F5.5 Fab; Fab 3-3F5 Humanized
B6: 10C5 Fab (Fab, V domains shown)
VH: EVQLVESGGGLVQPGGSLRLSCAASGFSLSSYGVTWVRQAPGKGLEWIGYITSNYGVSYYASWAKSRSTISRDTSKNTVYLQMGSLRAEDMAVYYCARENPDYGYAYDAWGQGTTVTVSS
VL: AIRMTQSPSSFSASTGDRVTITCQASESISNELSWYQQKPGKAPKLLIYYASTLASGVPSRFSGSGSGTDFTLTISSLQPEDFATYYCAQGFGSSGVENVFGGGTKVEIKR
notes: Fab used for crystallization with human KLK5; lysines of the complex were methylated; also called Fab 10C5 Humanized
B7: 9H5 Fab (Fab, V domains shown)
VH: EVQLVESGGGLIQPGGSLRLSCAASGFSLSSYGVSWVRQAPGKGLEYVGFIGSGGFAYYASWAKSRFTISRDNSKNTLYLQMNSLRAEDTAVYYCARDDVGGGKSLDIWGQGTLVTVSS
VL: DIQMTQSPSSLSASVGDRVTITCQASQSISSYLSWYQQKPGKAPKLLIYSASTLASGVPSRFSGSGSGTDFTLTISSLQPEDFATYYCHQDYTSSNVDNTFGGGTKVEIKR
notes: Fab used for crystallization with human KLK5; lysines of the complex were methylated; also called Fab 9H5 Humanized

Molecular target: human KLK1 (human, UniProt P06870 25-262, limits assumed)
Experiment: array SPR imaging, antibody immobilized
Description: (§1) An array-based SPR imaging system (Carterra™, USA) was used to epitope bin a panel of 288 monoclonal antibodies. Purified antibodies were diluted at 10 μg/ml in 10 mM sodium acetate buffer pH 4.5. Using amine coupling, antibodies were directly immobilized onto a SPR sensorprism CMD 200M chip (XanTec Bioanalytics GmbH, Germany) using a Continuous Flow Microspotter (Carterra™, USA) to create an array of 288 antibodies. For analysis, the IBIS MX96 SPRi (Carterra™, USA) was used to evaluate analytes binding to the immobilized ligands. For kinetic analyses, human, cyno and murine KLK5 were injected for 3 minutes from 0 to 300 nM at 3-fold dilution followed by a dissociation period of 10 minutes. Human KLK1, KLK4, and KLK7 were injected at a single concentration of 500 nM to ensure the specificities of the antibodies. For epitope binning against SPINK9-Fc-SRE, human KLK5 was first injected for 4 minute at 100 nM and was followed by a second 4 minute injection of SPINK9-Fc-SRE at 10 μg/ml. The surface was regenerated with 10 mM glycine pH1.5 between cycles. The experiment was performed at 25° C. in a running buffer of HBS-T buffer (0.01M HEPES pH 7.4, 0.15M NaCl, 0.05% surfactant P20). The kinetic data was processed using Scrubber 2.0 (BioLogic™ Software) and the epitope binning data was processed using Wasatch binning software tool (Carterra™, USA).

Chain of human KLK1 (P06870 25-262 limits assumed): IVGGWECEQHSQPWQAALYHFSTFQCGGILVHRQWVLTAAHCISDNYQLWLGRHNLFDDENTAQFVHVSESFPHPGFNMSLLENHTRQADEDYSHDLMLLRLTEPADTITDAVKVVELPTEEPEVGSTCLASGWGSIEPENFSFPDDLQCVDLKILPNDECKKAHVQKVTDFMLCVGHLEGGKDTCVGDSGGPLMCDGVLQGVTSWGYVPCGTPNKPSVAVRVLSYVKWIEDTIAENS

binding result	Binder
no binding (tested: 500 nM)	B1
no binding (tested: 500 nM)	B2
no binding (tested: 500 nM)	B3
no binding (tested: 500 nM)	B4

Molecular target: human KLK4 (human, UniProt Q9Y5K2 31-254, limits assumed)
Experiment: array SPR imaging, antibody immobilized
Description: as §1

Chain of human KLK4 (Q9Y5K2 31-254 limits assumed): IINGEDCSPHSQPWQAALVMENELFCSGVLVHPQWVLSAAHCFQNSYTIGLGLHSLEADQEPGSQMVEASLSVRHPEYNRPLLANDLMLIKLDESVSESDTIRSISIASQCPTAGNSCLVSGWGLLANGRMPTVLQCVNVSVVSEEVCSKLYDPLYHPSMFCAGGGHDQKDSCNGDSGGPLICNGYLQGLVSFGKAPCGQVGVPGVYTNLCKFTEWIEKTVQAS

binding result	Binder
no binding (tested: 500 nM)	B1
no binding (tested: 500 nM)	B2
no binding (tested: 500 nM)	B3
no binding (tested: 500 nM)	B4

Molecular target: human KLK7 (human, UniProt P49862 30-253, limits assumed)
Experiment: array SPR imaging, antibody immobilized
Description: as §1

Chain of human KLK7 (P49862 30-253 limits assumed): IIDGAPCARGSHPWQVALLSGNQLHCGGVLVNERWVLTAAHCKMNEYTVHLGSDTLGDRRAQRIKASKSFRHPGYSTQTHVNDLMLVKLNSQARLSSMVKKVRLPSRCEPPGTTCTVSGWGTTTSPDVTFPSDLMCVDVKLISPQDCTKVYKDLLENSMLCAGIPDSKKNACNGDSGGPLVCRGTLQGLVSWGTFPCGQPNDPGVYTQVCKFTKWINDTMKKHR

binding result	Binder
no binding (tested: 500 nM)	B1
no binding (tested: 500 nM)	B2
no binding (tested: 500 nM)	B3
no binding (tested: 500 nM)	B4

Molecular target: T1, Recombinant human KLK5 residues …
Experiment: crystal structure of the Fab/KLK5 complex
Description: Recombinant human KLK5 residues I67-S293 (SEQ ID NO:328) was expressed in a Baculovirus expression system as a C-terminal fusion of ubiquitin with an Enterokinase cleavage site engineered between ubiquitin and KLK5. Sf9 cells were coexpressed with EndoH with 1 mg/mL of Kifunensine. Protein was purified on a HiTrap™ Heparin column. The column was washed with 25 mM TRIS pH 7.5 for 5 CV (column volumes), and then eluted with 0-750 mM NaCl over a gradient of 20 CV. Resultant protein pool was then further purified over 5200 by SEC in 25 mM Tris pH 7.5, 300 mM NaCl. The Ubiquitin was then cleaved using Enterokinase, and sample further purified by SEC again. […] Fab fragments including heavy and light chains were expressed and purified as described. See Carter et al., Biotechnology 10(2), 163-167 (1992). KLK5 was then mixed with each of the Fabs separately, 10C5, 9H5, and 3-3F5, and the complex was purified by SEC in 25 mM HEPES pH 7.2, 100 mM NaCl. […] Crystal for the 10C5 and 9H5 complexes were only obtained when the lysine residues in the protein complexes were methylated. See Walter et al., Structure, 14(11), 1617-1622 (2006).

buried surface area [Å^2]	Binder
956	B5
~860	B6
805	B7
